Measured values as given in patent US20190185537A1 (AstraZeneca / MedImmune, published 2019).
Numbered stars: 1 amine (or outer) side, 2 acyl side, 3 side chain; on linkers, the order of the positions; unused ones are H or OH. Side chains are listed from the residue outwards. Ends that are not written are not given here. * marks the point of attachment. γGlu = O=C(O)[C@H](CCC(=O)[*:2])N[*:1]; Palmitoyl = CCCCCCCCCCCCCCCC(=O)*

T1: human glucose-dependent insulinotropic peptide (gastric inhibitory polypeptide) receptor (human) (UniProt P48546)
T1 sequence (looked up): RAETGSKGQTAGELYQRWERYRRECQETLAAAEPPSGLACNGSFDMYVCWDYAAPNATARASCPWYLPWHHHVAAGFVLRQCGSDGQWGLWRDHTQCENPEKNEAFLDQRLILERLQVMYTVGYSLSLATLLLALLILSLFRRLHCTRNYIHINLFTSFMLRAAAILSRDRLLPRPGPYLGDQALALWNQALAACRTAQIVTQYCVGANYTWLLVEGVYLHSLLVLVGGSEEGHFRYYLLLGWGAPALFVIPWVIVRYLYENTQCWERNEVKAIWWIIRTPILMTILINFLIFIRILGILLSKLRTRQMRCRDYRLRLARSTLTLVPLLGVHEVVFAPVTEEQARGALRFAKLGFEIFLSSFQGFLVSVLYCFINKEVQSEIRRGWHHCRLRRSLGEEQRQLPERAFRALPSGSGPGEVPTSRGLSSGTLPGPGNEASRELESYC


How the values were obtained:
Test in all cases: cell-based or functional assay
[1] = target: T1, human glucose-dependent insulinotropic peptide (gastric inhibitory polypeptide) receptor (human)
human glucagon receptor = human glucagon receptor (human, UniProt P47871 26-477)
Sequence of human glucagon receptor (P47871 26-477): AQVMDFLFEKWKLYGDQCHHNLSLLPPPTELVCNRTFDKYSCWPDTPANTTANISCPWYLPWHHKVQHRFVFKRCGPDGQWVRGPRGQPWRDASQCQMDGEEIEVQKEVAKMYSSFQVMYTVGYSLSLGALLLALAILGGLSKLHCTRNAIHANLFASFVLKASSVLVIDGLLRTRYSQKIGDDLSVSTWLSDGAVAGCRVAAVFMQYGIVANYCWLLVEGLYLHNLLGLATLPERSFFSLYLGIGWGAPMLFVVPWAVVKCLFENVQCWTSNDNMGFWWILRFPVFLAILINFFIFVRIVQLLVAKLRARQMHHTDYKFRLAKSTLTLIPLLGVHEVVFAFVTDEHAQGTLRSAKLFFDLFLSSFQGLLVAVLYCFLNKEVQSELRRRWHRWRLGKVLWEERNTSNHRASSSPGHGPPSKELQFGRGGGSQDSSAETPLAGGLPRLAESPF

human GLP-1 receptor = human GLP-1 receptor (human, UniProt P43220 24-463)
Sequence of human GLP-1 receptor (P43220 24-463): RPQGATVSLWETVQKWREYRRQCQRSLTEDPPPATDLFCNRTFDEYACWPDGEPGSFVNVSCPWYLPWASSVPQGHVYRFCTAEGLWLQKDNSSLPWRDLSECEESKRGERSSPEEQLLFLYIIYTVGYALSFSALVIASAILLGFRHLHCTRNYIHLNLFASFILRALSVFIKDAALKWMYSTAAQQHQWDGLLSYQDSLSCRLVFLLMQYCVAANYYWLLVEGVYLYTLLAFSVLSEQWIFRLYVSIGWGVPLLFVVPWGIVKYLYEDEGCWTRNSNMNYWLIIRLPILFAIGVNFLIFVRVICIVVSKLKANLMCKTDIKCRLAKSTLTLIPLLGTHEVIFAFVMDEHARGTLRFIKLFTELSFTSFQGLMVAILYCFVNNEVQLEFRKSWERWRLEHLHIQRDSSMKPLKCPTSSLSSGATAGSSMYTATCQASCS

Binder | cAMP EC50 (assay 1) [1] [nM] | cAMP EC50 (assay 1) (human glucagon receptor) [nM] | cAMP EC50 (assay 1) (human GLP-1 receptor) [nM]
HSQGTFTSDYSKYK([γGlu-Palmitoyl])DSERARDFVAWLVAGG-NH2 (N-terminus assumed; SMILES CCCCCCCCCCCCCCCC(=O)N[C@@H](CCC(=O)NCCCC[C@H](NC(=O)[C@H](Cc1ccc(O)cc1)NC(=O)[C@H](CCCCN)NC(=O)[C@H](CO)NC(=O)[C@H](Cc1ccc(O)cc1)NC(=O)[C@H](CC(=O)O)NC(=O)[C@H](CO)NC(=O)[C@@H](NC(=O)[C@H](Cc1ccccc1)NC(=O)[C@@H](NC(=O)CNC(=O)[C@H](CCC(N)=O)NC(=O)[C@H](CO)NC(=O)[C@@H](N)Cc1c[nH]cn1)[C@@H](C)O)[C@@H](C)O)C(=O)N[C@@H](CC(=O)O)C(=O)N[C@@H](CO)C(=O)N[C@@H](CCC(=O)O)C(=O)N[C@@H](CCCNC(=N)N)C(=O)N[C@@H](C)C(=O)N[C@@H](CCCNC(=N)N)C(=O)N[C@@H](CC(=O)O)C(=O)N[C@@H](Cc1ccccc1)C(=O)N[C@H](C(=O)N[C@@H](C)C(=O)N[C@@H](Cc1c[nH]c2ccccc12)C(=O)N[C@@H](CC(C)C)C(=O)N[C@H](C(=O)N[C@@H](C)C(=O)NCC(=O)NCC(N)=O)C(C)C)C(C)C)C(=O)O) [g777] | 4.53 | 0.00124 | 0.0274
HSQGTFTSDYSEYK([γGlu-Palmitoyl])DSERARDFVAWLVAGG-NH2 (N-terminus assumed; SMILES CCCCCCCCCCCCCCCC(=O)N[C@@H](CCC(=O)NCCCC[C@H](NC(=O)[C@H](Cc1ccc(O)cc1)NC(=O)[C@H](CCC(=O)O)NC(=O)[C@H](CO)NC(=O)[C@H](Cc1ccc(O)cc1)NC(=O)[C@H](CC(=O)O)NC(=O)[C@H](CO)NC(=O)[C@@H](NC(=O)[C@H](Cc1ccccc1)NC(=O)[C@@H](NC(=O)CNC(=O)[C@H](CCC(N)=O)NC(=O)[C@H](CO)NC(=O)[C@@H](N)Cc1c[nH]cn1)[C@@H](C)O)[C@@H](C)O)C(=O)N[C@@H](CC(=O)O)C(=O)N[C@@H](CO)C(=O)N[C@@H](CCC(=O)O)C(=O)N[C@@H](CCCNC(=N)N)C(=O)N[C@@H](C)C(=O)N[C@@H](CCCNC(=N)N)C(=O)N[C@@H](CC(=O)O)C(=O)N[C@@H](Cc1ccccc1)C(=O)N[C@H](C(=O)N[C@@H](C)C(=O)N[C@@H](Cc1c[nH]c2ccccc12)C(=O)N[C@@H](CC(C)C)C(=O)N[C@H](C(=O)N[C@@H](C)C(=O)NCC(=O)NCC(N)=O)C(C)C)C(C)C)C(=O)O) [g846] | 11.8 | 0.0341 | 0.0438
HSQGTFTSDYSEYK([γGlu-Palmitoyl])DSRRAQDFVQWLVAGG-NH2 (N-terminus assumed; SMILES CCCCCCCCCCCCCCCC(=O)N[C@@H](CCC(=O)NCCCC[C@H](NC(=O)[C@H](Cc1ccc(O)cc1)NC(=O)[C@H](CCC(=O)O)NC(=O)[C@H](CO)NC(=O)[C@H](Cc1ccc(O)cc1)NC(=O)[C@H](CC(=O)O)NC(=O)[C@H](CO)NC(=O)[C@@H](NC(=O)[C@H](Cc1ccccc1)NC(=O)[C@@H](NC(=O)CNC(=O)[C@H](CCC(N)=O)NC(=O)[C@H](CO)NC(=O)[C@@H](N)Cc1c[nH]cn1)[C@@H](C)O)[C@@H](C)O)C(=O)N[C@@H](CC(=O)O)C(=O)N[C@@H](CO)C(=O)N[C@@H](CCCNC(=N)N)C(=O)N[C@@H](CCCNC(=N)N)C(=O)N[C@@H](C)C(=O)N[C@@H](CCC(N)=O)C(=O)N[C@@H](CC(=O)O)C(=O)N[C@@H](Cc1ccccc1)C(=O)N[C@H](C(=O)N[C@@H](CCC(N)=O)C(=O)N[C@@H](Cc1c[nH]c2ccccc12)C(=O)N[C@@H](CC(C)C)C(=O)N[C@H](C(=O)N[C@@H](C)C(=O)NCC(=O)NCC(N)=O)C(C)C)C(C)C)C(=O)O) [g731] | 40.7 | 0.0277 | 0.0422
